The text below walks through data of patent US20260151519A1 (AKTIS ONCOLOGY, published 2026).

One test concerns the target T1, SPNS2 (human, UniProt Q8IVW8 1-549).
T1 construct: whole, on cells
T1 sequence (looked up): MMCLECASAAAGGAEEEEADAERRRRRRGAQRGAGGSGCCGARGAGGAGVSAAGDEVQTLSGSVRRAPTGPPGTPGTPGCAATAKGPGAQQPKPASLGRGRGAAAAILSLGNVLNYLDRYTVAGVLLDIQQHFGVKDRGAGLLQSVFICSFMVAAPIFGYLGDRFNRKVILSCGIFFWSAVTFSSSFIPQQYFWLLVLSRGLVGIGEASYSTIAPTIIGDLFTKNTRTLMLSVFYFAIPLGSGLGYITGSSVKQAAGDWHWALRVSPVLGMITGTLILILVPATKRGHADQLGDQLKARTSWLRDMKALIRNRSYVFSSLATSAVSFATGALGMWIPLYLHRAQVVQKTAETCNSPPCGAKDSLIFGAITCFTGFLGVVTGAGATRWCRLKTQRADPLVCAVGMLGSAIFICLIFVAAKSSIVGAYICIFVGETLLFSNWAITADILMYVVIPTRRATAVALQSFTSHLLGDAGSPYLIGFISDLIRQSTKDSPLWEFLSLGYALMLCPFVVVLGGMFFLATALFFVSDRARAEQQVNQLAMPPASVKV
The experiment in a line: cell microarray on HEK293 cells. The protocol:
Initially, two pools of compounds were tested. […] To perform this assay, HEK293 cells were plated on a dish and localized spots of cells were transiently over-expressed with a single cDNA encoding for GFP and one of the 6,416 targets. Included in this library were multiple clones for the Nectin family members, including plasma membrane, non-tethered secreted, and tethered secreted forms of Nectin-1, 2, 3, and 4. Secreted protein targets were tethered to the plasma membrane to aid in detection. The molecule pools were incubated on the fixed, over-expressing cell microarrays (n=2 per protein), and binding was visualized using Alexa Fluor 647 streptavidin fluorescence.

The target of test [1] is T2, Human Nectin-4 expressed on cells (human, UniProt Q96NY8 32-510).
T2 construct: Endogenous on HT-1376 cells; also called endogenous Nectin-4 on HT-1376 cells; cell surface Nectin-4
T2 sequence: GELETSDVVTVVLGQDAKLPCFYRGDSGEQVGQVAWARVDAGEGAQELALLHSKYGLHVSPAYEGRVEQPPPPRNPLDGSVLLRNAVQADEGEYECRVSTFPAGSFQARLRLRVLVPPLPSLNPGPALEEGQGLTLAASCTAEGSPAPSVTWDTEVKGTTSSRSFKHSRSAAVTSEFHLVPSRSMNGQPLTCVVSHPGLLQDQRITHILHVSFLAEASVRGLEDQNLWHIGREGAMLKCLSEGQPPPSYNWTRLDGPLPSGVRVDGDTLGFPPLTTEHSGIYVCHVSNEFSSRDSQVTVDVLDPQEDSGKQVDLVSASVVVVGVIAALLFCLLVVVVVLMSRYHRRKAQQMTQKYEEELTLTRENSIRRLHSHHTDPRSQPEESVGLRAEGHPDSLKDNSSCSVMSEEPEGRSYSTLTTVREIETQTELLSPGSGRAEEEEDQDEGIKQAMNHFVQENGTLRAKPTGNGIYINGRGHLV
Kind of test: DELFIA competition against 10 nM C307, HT-1376 cells. The protocol:
(§1) A competition binding assay was utilized to determine the Kᵢ for miniproteins bound to Nectin-4 expressed on the surface of cancer cells. […] Miniprotein incubations occurred for 90 min to reach binding equilibrium. […] After miniprotein incubations, the wells were washed to remove unbound ligand and treated according to manufacturer instructions for a DELFIA® (dissociation-enhanced lanthanide fluorescent immunoassay, Revvity Health Sciences). In brief, washed wells were incubated with 15 μL of 2 M HCl for 2 h at 37° C., after which 17 μL of 2 M NaOH and 30 μL of DELFIA® enhancement solution were added to each well and incubated for an additional 30 min. The remaining Eu reacted with the DELFIA® enhancer solution to generate fluorescence measured on the Envision instrument. Relative fluorescence units (RFUs) were measured as a function of test article concentration in order to calculate an IC50. The Ki can then be calculated using the Cheng-Prusoff equation for converting a measured IC50 to Ki: […]

Test [2] has as its target T2, Human Nectin-4 expressed on cells. Kind of test: flow cytometry dose response, biotinylated C253 detected with Strep-PE, Delta MFI = C253 MFI minus vehicle MFI, HT-1376-P cells. As for the experimental part:
Fluorescent imaging for Nectin-4 binding was conducted using assays as described in Example 3. Briefly, Nectin-4 knockout HT-1376 cells were generated via CRISPR/Cas9 mediated gene deletion followed by single cell cloning. […] Flow cytometry was performed to measure on-target binding to cell surface Nectin-4. […]
In general terms: In flow cytometry, cells or beads pass a laser one at a time.

The target is the same in test [3]. Kind of test: competition binding assay (DELFIA, fluorescence at 615 nm) on HT-1376 cells: 12 concentrations of C253 against 10 nM Eu-labelled C307 as the displaced tracer. As for the experimental part:
as §1

Primed or numbered codes have the meaning given here. Where no end group is shown, it is not given here. [ ]: non-standard residue; d: D form. The star is where a group is joined. Biotin = O=C1N[C@H]2[C@H](CS[C@H]2CCCCC(=O)*)N1; Lys(Me3) = C[N+](C)(C)CCCC[C@H](N)C(=O)O; PEG4′ = not defined here

Broadly, the Ki is a dissociation constant, usually derived from enzyme kinetics or from competition with a known ligand. Read a high Ki as lower affinity. By EC50 (read off the curve) is commonly meant the concentration that produces a half-maximal response.

B1: C253 (designed binder)
chain: {Biotin-PEG4′}-CEYDEEFFTALARLRGGDICQYIQA[Lys(Me3)]FQYLPALCIEEILDNLGCS
modifications: cysteine pairing not given here
On to B1, for which the binding result with SPNS2 is on record as “no binding (tested: 2 µg/mL)”. The molecule also came in with a Ki in test [1] of 0.82 nM. Moreover, the “EC50 (read off the curve)” value in test [2] was about 0.8 nM. Moreover, the “IC50 (read off the curve)” value in test [3] was about 2 nM.

B2: C208 (designed binder)
chain: {Biotin-PEG4′}-CDYDEQFFTALKRLRGADICEYIQASFQYLPGECIEEILDNLGCS
modifications: cysteine pairing not given here
Consider B2, for which, in the test with SPNS2, the binding result is “no binding (tested: 2 µg/mL)”.

B3: C190 (designed binder)
chain: {Biotin-PEG4′}-CDYDEQFFTALKRLRGGDICEYIQASFQYLPGLCIEEILDNLGCS
modifications: cysteine pairing not given here
Take B3: the binding result with SPNS2 is “no binding (tested: 2 µg/mL)”.

B4: C197 (designed binder)
chain: {Biotin-PEG4′}-CEYDEQFFTALKRLRGDDICDYIQASFQYLPGLCIEEILDNLGCS
modifications: cysteine pairing not given here
Take B4: in the test with SPNS2, the binding result was “no binding (tested: 2 µg/mL)”.

B5: C247 (designed binder)
chain: {Biotin-PEG4′}-CDYDEQFFTALARLRGADICEYIQASFQYLPGECIEEILDNLGCS
modifications: cysteine pairing not given here
On to B5, for which the binding result in the test with SPNS2 was “no binding (tested: 2 µg/mL)”.
